Drawing on article PMC8651678 (Nature Communications, 2021), this text covers Kd and EC50 for 1 molecule.

The target in test [1] is T1, human eIF2B(αβδγε)2 decamer, eIF2Bβ Avi-tagged and biotinylated (human, UniProt Q14232;P49770;Q9UI10;Q9NR50;Q13144, biotin on the Avi tag).
T1 construct: also called decameric eIF2B; copies: 2 + 2 + 2 + 2 + 2
The experiment in a line: SPR. Particulars: both partners purified.

Test [2] deals with T2, human eIF2B(αβδγε)2 decamer (no capture tag) (human, UniProt Q14232;P49770;Q9UI10;Q9NR50;Q13144).
T2 construct: also called decameric eIF2B; eIF2B(αβγδε)2; copies: 2 + 2 + 2 + 2 + 2
The experiment in a line: fluorescence polarisation. To be noted: both partners purified. For orientation: Polarisation of emitted light reports the rotation of a fluorescent probe.

B1: Sandfly Fever Sicilian virus (SFSV) NSs protein with a C-terminal 6xHIS tag (natural protein)
chain: MINNNMMNSQYMFDYPAINIDVRCHRLLSSVSYVAYNKFHTHDVSTYEHCEIPLEKLRLGFGRRNSLADFYSLGELPASWGPACYFSSVKPMMYTFQGMASDLSRFDLTSFSRKGLPNVLKALSWPLGIPDCEIFSICSDRFVRGLQTRDQLMSYILRMGDSHSLDECIVQAHKKILQEARRLGLSDEHYNGYDLFREIGSLVCLRLINAEPFDTASSGEALDVRTVIRSYRASDPSTGLTEYGNSLWTPIHSHVDENDESSSDSDF
notes: not shown: 6xHIS, C-terminal, kept
Take B1: the Kd (in general, the constant that tells how readily two partners part at equilibrium) in test [1] was 30 nM. In addition, in test [2], a half-maximal effect (EC50) was put at 72 nM.
